Results reported in publication PMC10641069, “Intra- and inter-molecular regulation by intrinsically-disordered regions governs PUF protein RNA binding” (Nature Communications, 2023).

Target: T1, FBF-2 RBD+CT Loop6A (Caenorhabditis elegans, UniProt Q09312, D594A/E592A/E597A/E599A/E604A/E605A)
T1 construct: A cDNA fragment encoding C. elegans FBF-2 RBD + CT (residues 164-632) was cloned into the pSMT3 vector; His6-SUMO (N, cleaved yes); made in house; host or cells: E. coli BL21-CodonPlus (DE3)-RIL (as for wild type)
T1 sequence (Q09312 164-632 E592A/D594A/E597A/E599A/E604A/E605A): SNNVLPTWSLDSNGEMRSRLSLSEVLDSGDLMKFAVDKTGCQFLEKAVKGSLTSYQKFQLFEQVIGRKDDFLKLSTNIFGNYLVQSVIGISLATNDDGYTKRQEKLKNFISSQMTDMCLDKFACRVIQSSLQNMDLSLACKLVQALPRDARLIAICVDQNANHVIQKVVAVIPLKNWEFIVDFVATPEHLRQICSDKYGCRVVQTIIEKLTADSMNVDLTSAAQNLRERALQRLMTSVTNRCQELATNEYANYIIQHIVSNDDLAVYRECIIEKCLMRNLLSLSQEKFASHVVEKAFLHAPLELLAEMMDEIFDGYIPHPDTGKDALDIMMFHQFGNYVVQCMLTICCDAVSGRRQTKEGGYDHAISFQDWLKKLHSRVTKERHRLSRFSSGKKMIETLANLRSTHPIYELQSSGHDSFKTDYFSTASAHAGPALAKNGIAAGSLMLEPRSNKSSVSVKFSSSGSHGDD
Experiment: ITC, peptide into FBF-2 RBD + CT Loop6A, no RNA
Assay type: binding, C. elegans
Conditions: 20 °C, pH 7.4
Experimental: Experiments were performed at 20 °C using a MicroCal PEAQ-ITC Automated (Malvern Instruments) with a 200-μL standard cell and a 40-μL titration syringe. FBF-2 and LST-1 variants were prepared in a buffer of 20 mM HEPES pH 7.4, 150 mM NaCl, and 0.5 mM TCEP by gel filtration. LST-1 (100–400 µM) was titrated from the syringe into the cell containing FBF-2 (10–30 µM) in 2 µl aliquots. Experiments were performed in duplicate due to the limitation of the amount of protein needed. Data were analyzed using the MicroCal PEAQ-ITC Analysis Software (version 1.40) provided by the manufacturer with the one-site model (Table S3).
Supplementary Table 3. Protein interaction affinities, stoichiometries, and thermodynamic parameters between FBF-2 CT/LST-1 variants and FBF-2 measured by ITC. Two technical replicates (n=2 independent experiments) were performed for each analysis with similar results, and the values are shown for each replicate. Source data are provided as a Source Data file. […]
RBD+CT LST-1 A none Not detected
RBD FBF-2 CT none Not detected
1 Reported previously 18.

LST-1 B: LST-1 B peptide, residues 67–98, expressed in E. coli (SSSPQQRSGLRSQKLHLTYIEKNKRVRAMIPQ; left off: His6-SUMO, N-terminal, cleaved)
-T∆S (replicate 1): 5.07 kcal/mol | ∆G (replicate 1): -8.01 kcal/mol | ∆H (replicate 1): -13.1 kcal/mol | -T∆S (replicate 2): 3.59 kcal/mol | ∆G (replicate 2): -7.91 kcal/mol | ∆H (replicate 2): -11.5 kcal/mol
